Test results taken from IntAct's records for PubMed 21670263.

Legend:
[1] = target: tf2h1_human GTF2H1 (UniProt P32780)
[2] = target: cbp_human CREBBP (UniProt Q92793)
Sequence of cbp_human CREBBP (Q92793 whole entry, looked up): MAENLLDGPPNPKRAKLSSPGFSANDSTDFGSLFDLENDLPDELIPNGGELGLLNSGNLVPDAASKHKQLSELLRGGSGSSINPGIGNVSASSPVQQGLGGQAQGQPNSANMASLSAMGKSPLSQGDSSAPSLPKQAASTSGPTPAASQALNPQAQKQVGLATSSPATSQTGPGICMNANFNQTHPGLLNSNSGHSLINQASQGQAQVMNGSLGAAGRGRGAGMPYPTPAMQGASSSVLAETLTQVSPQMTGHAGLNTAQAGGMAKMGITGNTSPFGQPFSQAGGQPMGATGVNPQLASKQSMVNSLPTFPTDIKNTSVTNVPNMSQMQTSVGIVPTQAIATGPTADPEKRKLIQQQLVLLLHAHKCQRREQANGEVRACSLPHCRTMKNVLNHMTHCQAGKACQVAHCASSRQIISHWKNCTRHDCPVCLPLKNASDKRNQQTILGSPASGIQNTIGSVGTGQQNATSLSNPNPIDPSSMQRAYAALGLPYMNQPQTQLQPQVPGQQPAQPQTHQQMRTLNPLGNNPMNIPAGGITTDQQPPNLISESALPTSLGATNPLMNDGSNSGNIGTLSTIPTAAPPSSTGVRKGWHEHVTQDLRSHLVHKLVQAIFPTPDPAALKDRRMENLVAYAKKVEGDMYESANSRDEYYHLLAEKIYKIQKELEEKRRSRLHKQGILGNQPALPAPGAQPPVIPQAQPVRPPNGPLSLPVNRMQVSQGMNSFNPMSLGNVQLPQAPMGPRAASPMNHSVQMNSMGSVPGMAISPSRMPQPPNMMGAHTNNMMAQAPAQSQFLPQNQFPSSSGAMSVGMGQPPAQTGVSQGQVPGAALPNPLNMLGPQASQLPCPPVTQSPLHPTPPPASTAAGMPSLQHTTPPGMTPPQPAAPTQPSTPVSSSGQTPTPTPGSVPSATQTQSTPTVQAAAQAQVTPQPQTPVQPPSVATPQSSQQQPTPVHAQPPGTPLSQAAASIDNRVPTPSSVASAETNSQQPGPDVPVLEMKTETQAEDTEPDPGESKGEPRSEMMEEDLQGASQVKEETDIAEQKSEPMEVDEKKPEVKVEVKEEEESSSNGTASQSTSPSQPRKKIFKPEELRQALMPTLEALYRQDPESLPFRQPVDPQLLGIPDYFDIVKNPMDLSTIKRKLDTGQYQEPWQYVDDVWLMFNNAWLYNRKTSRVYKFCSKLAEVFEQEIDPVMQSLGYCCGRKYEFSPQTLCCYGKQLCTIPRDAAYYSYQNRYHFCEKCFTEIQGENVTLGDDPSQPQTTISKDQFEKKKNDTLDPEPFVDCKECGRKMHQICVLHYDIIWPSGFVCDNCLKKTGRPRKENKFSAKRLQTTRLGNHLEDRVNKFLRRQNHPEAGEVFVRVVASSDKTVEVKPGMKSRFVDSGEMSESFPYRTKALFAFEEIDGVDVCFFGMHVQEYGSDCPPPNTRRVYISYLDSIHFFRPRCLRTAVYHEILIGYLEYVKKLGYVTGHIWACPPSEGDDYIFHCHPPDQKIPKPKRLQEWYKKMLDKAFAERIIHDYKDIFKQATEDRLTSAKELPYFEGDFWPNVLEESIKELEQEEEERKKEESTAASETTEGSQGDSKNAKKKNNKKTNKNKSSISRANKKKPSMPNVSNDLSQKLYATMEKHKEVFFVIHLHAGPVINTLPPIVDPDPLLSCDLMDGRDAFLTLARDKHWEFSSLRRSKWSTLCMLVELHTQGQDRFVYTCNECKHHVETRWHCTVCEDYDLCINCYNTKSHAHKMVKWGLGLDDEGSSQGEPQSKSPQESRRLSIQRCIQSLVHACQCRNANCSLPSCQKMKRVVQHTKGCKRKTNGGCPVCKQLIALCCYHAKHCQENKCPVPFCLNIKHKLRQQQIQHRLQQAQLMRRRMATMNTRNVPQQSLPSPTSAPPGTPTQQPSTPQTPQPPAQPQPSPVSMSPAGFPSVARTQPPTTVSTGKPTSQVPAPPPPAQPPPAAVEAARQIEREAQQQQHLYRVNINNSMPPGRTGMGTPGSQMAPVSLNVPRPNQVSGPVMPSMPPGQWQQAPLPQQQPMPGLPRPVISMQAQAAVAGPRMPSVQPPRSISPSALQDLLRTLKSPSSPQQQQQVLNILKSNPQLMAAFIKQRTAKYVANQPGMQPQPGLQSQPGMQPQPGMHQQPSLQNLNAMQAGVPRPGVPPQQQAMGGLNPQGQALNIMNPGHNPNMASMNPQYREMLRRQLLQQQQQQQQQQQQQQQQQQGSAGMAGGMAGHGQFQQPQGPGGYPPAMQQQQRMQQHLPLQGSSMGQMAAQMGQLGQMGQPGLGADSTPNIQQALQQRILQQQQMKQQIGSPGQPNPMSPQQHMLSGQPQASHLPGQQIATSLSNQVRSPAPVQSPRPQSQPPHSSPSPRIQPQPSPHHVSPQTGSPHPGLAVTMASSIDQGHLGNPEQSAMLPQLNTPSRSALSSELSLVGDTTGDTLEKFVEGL

Sequence of Krueppel-like factor 1 (Homo sapiens), Q13351 W73P (Q13351 whole entry W73P): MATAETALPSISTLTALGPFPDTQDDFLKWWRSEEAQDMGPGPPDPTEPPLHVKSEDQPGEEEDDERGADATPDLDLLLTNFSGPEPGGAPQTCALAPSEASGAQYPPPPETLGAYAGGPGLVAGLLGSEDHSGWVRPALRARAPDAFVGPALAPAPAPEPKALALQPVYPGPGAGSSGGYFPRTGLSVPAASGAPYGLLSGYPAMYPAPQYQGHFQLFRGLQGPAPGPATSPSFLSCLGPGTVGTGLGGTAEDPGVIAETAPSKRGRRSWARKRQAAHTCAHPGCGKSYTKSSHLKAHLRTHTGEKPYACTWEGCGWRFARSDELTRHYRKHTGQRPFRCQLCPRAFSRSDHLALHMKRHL
Sequence of tf2h1_human GTF2H1 (P32780 whole entry): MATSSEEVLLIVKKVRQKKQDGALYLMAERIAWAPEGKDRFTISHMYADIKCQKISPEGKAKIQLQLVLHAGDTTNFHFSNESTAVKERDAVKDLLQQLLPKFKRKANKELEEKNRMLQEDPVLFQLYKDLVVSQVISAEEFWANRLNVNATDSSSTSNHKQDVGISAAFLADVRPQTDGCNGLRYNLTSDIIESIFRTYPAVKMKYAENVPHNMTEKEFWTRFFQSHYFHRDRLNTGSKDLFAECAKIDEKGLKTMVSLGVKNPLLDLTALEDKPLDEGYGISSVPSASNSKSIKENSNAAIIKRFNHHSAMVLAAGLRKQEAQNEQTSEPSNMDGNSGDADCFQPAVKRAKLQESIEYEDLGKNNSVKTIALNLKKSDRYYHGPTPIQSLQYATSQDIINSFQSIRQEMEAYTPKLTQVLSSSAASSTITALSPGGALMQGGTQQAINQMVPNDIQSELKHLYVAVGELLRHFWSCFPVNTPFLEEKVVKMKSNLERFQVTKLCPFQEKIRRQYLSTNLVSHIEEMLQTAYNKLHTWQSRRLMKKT

Krueppel-like factor 1 (Homo sapiens), Q13351 W73P
effect of a mutation on the interaction [1]: disrupting interaction strength | effect of a mutation on the interaction [2]: disrupting interaction strength
